Assay results published in the supplement of paper PMC12764529.
± gives the half width of the 95% confidence interval.

Assays:
[1] = folding stability dG unfold from trypsin proteolysis; higher = more stable
Summary of the method: (§1)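 Mini-proteins designed to be under 80 residues and free of cysteine were carried in a PA-tagged cDNA display construct and digested with trypsin and with chymotrypsin. Each protease was applied at 11 threefold-diluted concentrations, alongside a no-protease condition, before sequencing. K50 came from Bayesian fitting of the sequencing counts, and unfolding free energy was obtained by comparing it with a sequence-predicted unfolded-state K50 and a shared folded-state K50, for each protease separately or for both together. Designs were retained only if their AlphaFold2 dimer inter-PAE exceeded 15.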

[2] = folding stability dG unfold from chymotrypsin proteolysis; higher = more stable
Summary of the method: as §1

[3] = folding stability dG unfold (combined trypsin and chymotrypsin); higher = more stable
Summary of the method: as §1

Sequence | folding stability dG unfold [1] [kcal/mol] | folding stability dG unfold [2] [kcal/mol] | folding stability dG unfold [3] [kcal/mol]
SAGGMTIEEILNMSIEEVKALAEEKGLKEVVITLPDGSKITIKVNKDGSIEVTVTNKDGSKKTFTFPSAGGS [r8_51_TrROS_Hall] | 3.91 ± 0.42 | 3.97 ± 0.1 | 4.05 ± 0.24
SAGGFIVVPIKAKSLEEALEKAREIAAALGIPGTLEDPRVDLDDFLKNYKPDTEVRVYVRHPDGVIDELSAG [r5_503_TrMRF] | 1.23 ± 0.033 | 0.223 ± 0.21 | 0.878 ± 0.11
SAKPPKVEVKTVRVTIKVRNKDGSTYTITKEVTEVRVEVDGKTVTVTSIKITIELPPGITEVEIKIEKVSAG [r14_892_TrROS_Hall] | 3.61 ± 0.49 | 4.84 ± 0.29 | 4.47 ± 0.47
SAGGSAGGSAGMKIRIELPGMSPEQIEELAKLIPNVRVSITYDKETNRVYVEIEVSEEDLSAGGSAGGSAGG [r11_862_TrROS_Hall] | 2.38 ± 0.058 | 3.21 ± 0.052 | 2.88 ± 0.051
SMKITTDPVNKTISATFPPGTDPLAETQKIVDEVKKKENSGDITITFSTGNTTINYTLGTNTVTTTPAGTSA [r9_224_JUSTAS] | -0.0577 ± 0.063 | -0.35 ± 0.19 | -0.0954 ± 0.096
SPVLEKIRKLVEELLKKLGIEVKEGETVEIEITLPDGSTIRITFDAKTKKITVEITIDGKKVTLTLEIKPSA [r9_426_TrROS_Hall] | 4.2 ± 0.3 | 5.68 ± 0.72 | > 6
SAGGSAGVPPGGRVRVLVYNPLTGEVREVELPVGSLEEFLRGANLPAPLPDGRPAPVVVEILEVEPSAGGSA [r15_797_TrMRF] | 1.77 ± 0.14 | 3.11 ± 0.081 | 2.64 ± 0.36
SAGGSAGGSAGGGLRKITFETPLSDFEELVKALGLNVVSAEVEPGAGGLAKVTLLVEEGSAGGSAGGSAGGS [r10_999_TrMRF] | 1.04 ± 0.013 | 1.843 ± 0.016 | 1.55 ± 0.041
SAGGSAGGSAGWRTHSHWVPPDNIPELAERIQDWGVKVEIERDPKDGWYRVTITIPDDFISAGGSAGGSAGG [r11_1043_TrROS] | 0.793 ± 0.058 | 1.38 ± 0.15 | 1.21 ± 0.14
SFNISVSVEPDDDKYKVTIWIQVDPEEFPGQPPTPSVIEEIARELARDWGIKEVEIEPPPNGYYRHTFPLSA [r9_883_TrROS] | 1.33 ± 0.032 | 2.25 ± 0.057 | 1.88 ± 0.1
SKPDAPKIVELLRELFPDLEITSVSYDPETGTYTVTFPDGVVAEVHVDPNGNVHIVLRTPTSERTFTLPVSA [r9_304_TrMRF] | 2.68 ± 0.1 | 2.38 ± 0.043 | 2.55 ± 0.07
SAGGSAGGSAGVSFVVDALFVDPNTNEVYHGHIEFYDDGTAKITLTNQNGKTKTFTFPVLFSAGGSAGGSAG [r3_61_TrMRF] | 2.73 ± 0.14 | 3.25 ± 0.049 | 3.01 ± 0.19
SAGGSAIKLPSGVKIEFKKTEDGKYIVRVTLPDGKPIELEFEGDPEGPNNITPEEINDAILEKIKSSAGGSA [r15_780_TrMRF] | 2.67 ± 0.11 | 3.23 ± 0.056 | 3.06 ± 0.081
SAMIEIPFSPDTPVEERLAMIKEAIEAAKAAGIEPKEITLIVPPDREDILEAVEEAGIPKERVKIKDQPSAG [r14_589_JUSTAS] | 0.789 ± 0.045 | 1.49 ± 0.057 | 1.24 ± 0.07
SAMKIKIKVIGVLKPENHALIFLELDDSIPPEIPVVIRIKNENGEILEIPIEGNRALLVVDDRKIEILTSAG [r14_350_TrMRF] | 1.82 ± 0.08 | 1.67 ± 0.072 | 1.73 ± 0.12
